Where no end group is shown, it is not given here. [ ]: non-standard residue; d: D form. code O = not defined here; Dab = NCC[C@H](N)C(=O)O
T1: B-Raf kinase, P15056
T1 chain: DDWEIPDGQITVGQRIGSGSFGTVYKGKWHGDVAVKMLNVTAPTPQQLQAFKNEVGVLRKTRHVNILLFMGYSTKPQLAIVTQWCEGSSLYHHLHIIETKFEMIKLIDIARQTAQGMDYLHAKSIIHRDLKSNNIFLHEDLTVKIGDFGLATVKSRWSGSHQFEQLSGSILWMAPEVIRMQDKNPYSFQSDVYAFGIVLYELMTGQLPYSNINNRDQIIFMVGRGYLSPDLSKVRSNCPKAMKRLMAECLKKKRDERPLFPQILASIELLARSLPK


Molecular target: T1, B-Raf kinase, P15056
Test: ITC

Binder	ΔH [kcal/mol]
GVLRKARHVNILLFMGYST (modifications not checked) [SEQ ID NO: 8]	-8.32

Molecular target: T1, B-Raf kinase, P15056
Test: binding affinity with BRAF, Table 2 (method not given; the Methods describe fluorescence titration)

Binder	Kd [nM]
VLRKTRHVNILLFM (modifications not checked) [SEQ ID NO: 16 (…)]	5750
VCRKTRHVNILLCM (modifications not checked) [SEQ ID NO: 33 (…)]	360
VLRKKRHVNELLFMG (modifications not checked) [SEQ ID NO: 53 (…)]	1890
V[Dab]RKKRHVNELLDMG [SEQ ID NO: 54 (VDab…)]	370

Molecular target: T1, B-Raf kinase, P15056
Test: intrinsic fluorescence titration (ITF) of B-Raf in solution

Binder	Kd [nM]
GRINKGRHTFLLVVMTYSL (modifications not checked) [SEQ ID NO: 3 (scrambled, …)]	2960
VARKTRHVNILLFMG (modifications not checked) [SEQ ID NO: 21 (504-518 L505A, …)]	450
VLAKTRHVNILLFMG (modifications not checked) [SEQ ID NO: 22 (504-518 R506A, …)]	360
VLRKTAHVNILLFMG (modifications not checked) [SEQ ID NO: 24 (504-518 R509A, …)]	2400
VLRKTRAVNILLFMG (modifications not checked) [SEQ ID NO: 25 (504-518 H510A, …)]	2700
VLRKTRHVNALLFMG (modifications not checked) [SEQ ID NO: 27 (504-518 I513A, …)]	2690
VLRKTRHVNIALFMG (modifications not checked) [SEQ ID NO: 28 (504-518 L514A, …)]	1020
VLRKTRHVNILLAMG (modifications not checked) [SEQ ID NO: 29 (504-518 F516A, …)]	570
GVARKTRHVNILLFMGYST (modifications not checked) [SEQ ID NO: 4 (503-521 L505A, …)]	3890
VLRKTRHVNILLFAG (modifications not checked) [SEQ ID NO: 30 (504-518 M517A, …)]	540
LRKTRHVNILLFMG (modifications not checked) [SEQ ID NO: 31 (…)]	190
LLKTRHVNILLFMG (modifications not checked) [SEQ ID NO: 32 (505-518 R506L, …)]	550
LRKKRHVNELLFMG (modifications not checked) [SEQ ID NO: 37 (cyclo 508-513 T508K, I513E, …)]	1890
GVLEKTRHVNILLFMGYST (modifications not checked) [SEQ ID NO: 5 (503-521 R506E, …)]	1090
GVLRKDRHVNILLFMGYST (modifications not checked) [SEQ ID NO: 7 (503-521 T508D, …)]	2200
GVLRKTRHANILLFMGYST (modifications not checked) [SEQ ID NO: 10 (503-521 V511A, …)]	4750
GVLRKTRHVNIALFMGYST (modifications not checked) [SEQ ID NO: 11 (503-521 L514A, …)]	9800
GVLRKTRHVNILIFMGYST (modifications not checked) [SEQ ID NO: 12 (503-521 L515I, …)]	4100
GVLRKTRHVNILLFMG (modifications not checked) [SEQ ID NO: 15 (503-518, …)]	1880

Molecular target: T1, B-Raf kinase, P15056
Test: intrinsic tryptophan fluorescence (ITF), column head 'Kd (ITF) (µM)'

Binder	Kd [nM]
TRHVNILLFMG (modifications not checked) [SEQ ID NO: 45 (…) with N-Cap N1]	50
TRHVNILLFMG (modifications not checked) [SEQ ID NO: 45 (…) with N-Cap N2]	84

Molecular target: T1, B-Raf kinase, P15056
Test: binding affinity, Table 3 (method not given; the Methods describe fluorescence titration)

Binder	Kd [nM]
LRKTRHVNILLFMG (modifications not checked) [SEQ ID NO: 31 (…)]	1880
VLRKKRHVNELLFMG (modifications not checked) [SEQ ID NO: 53 (…)]	1890
VLRK[code O]RHVAELIFMG (reading uncertain) [SEQ ID NO: 58 (VLRKO…)]	170
VLRKKRHVAELLFMG (modifications not checked) [SEQ ID NO: 60 (VLRKKMe…)]	39
KRHVAELLFMG (modifications not checked) [SEQ ID NO: 47 (…)]	590
KRHPAELLFMG (modifications not checked) [SEQ ID NO: 61 (…)]	160

Molecular target: T1, B-Raf kinase, P15056
Test: Kd for the B-Raf dimer interface (FIG. 1), fluorescence titration

Binder	Kd [nM]
GVLRKTRHVNILLFMGYST (modifications not checked) [SEQ ID NO: 1 (B-Raf residues 503-521, …)]	3840
GVLLKTRHVNILLFMGYST (modifications not checked) [SEQ ID NO: 6]	540

Reference: patent publication US20220127585A1
